From article PMC5765006, “Angiopoietins bind thrombomodulin and inhibit its function as a thrombin cofactor” (Scientific Reports, 2018) come the findings set out here.

Series [1] concerns the target T1, Thrombomodulin (TM) expressed on COS cells (human, UniProt P07204 19-575).
T1 construct: Thrombomodulin; cDNA isolated from expression libraries of HUVECs and EA.hy926 cells; Also used as the target of the functional rows on HUVECs (endogenous TM there); source: COS cells, transfected, on cells
Description: cell-surface binding assay (alkaline phosphatase-conjugated anti-human Fc, OD405); COS cells transfected with TM in 48-well plates, varying concentrations of FD-Fc in PBS/10% calf serum, 30 minutes at room temperature; specific binding = TM-transfected minus empty vector; apparent affinities. To be noted: one partner purified.

The target in series [2] is T2, soluble extracellular domain of human TM (human, UniProt P07204 19-515).
T2 construct: Thrombomodulin, human, soluble extracellular domain; also called soluble TM; source: bought: R&D Systems
T2 sequence (P07204 19-515): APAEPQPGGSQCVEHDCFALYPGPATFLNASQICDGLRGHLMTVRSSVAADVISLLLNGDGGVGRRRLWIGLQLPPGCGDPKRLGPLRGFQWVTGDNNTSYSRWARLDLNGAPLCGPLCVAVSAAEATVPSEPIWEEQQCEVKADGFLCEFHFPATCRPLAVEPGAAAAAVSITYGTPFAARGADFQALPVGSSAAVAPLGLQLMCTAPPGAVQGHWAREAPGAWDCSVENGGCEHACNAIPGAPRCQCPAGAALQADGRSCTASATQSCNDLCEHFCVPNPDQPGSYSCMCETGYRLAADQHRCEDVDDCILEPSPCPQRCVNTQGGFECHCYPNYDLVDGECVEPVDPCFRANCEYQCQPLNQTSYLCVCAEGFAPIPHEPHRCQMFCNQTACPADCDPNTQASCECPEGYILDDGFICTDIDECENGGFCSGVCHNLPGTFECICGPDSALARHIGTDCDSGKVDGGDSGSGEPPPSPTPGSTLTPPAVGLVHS
Description: pull-down; 100 nM His-tagged TM extracellular domain with 5 nM thrombin and 0.25, 0.5 or 1.0 uM native Ang1, Ang2 or Ang4 (control), 60 minutes on ice, 0.15 M NaCl, 20 mM Tris pH 7.5, 0.1% Triton X-100, 2 mM CaCl2, 1 mg/ml BSA; TM collected on Ni-NTA beads, western blot. To be noted: both partners purified. Background: A western blot detects proteins with antibodies after separation by electrophoresis.

T1 sequence (P07204 19-575): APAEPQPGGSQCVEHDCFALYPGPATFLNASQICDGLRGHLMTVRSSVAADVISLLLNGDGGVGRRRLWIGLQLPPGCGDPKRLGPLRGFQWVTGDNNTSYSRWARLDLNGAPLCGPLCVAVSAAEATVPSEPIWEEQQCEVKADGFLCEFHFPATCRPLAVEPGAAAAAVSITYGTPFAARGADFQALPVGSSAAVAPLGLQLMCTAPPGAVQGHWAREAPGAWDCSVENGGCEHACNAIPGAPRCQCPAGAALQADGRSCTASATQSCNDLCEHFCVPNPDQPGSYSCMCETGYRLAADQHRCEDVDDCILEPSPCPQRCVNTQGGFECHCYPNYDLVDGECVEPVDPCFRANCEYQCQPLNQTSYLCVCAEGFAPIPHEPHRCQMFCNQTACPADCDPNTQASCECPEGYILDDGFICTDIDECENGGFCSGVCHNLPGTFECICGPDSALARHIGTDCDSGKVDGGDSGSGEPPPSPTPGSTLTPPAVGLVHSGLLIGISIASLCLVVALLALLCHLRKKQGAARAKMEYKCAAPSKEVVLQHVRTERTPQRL

B1: Ang1-FD-Fc (Fc fusion, human, UniProt Q15389 277-498, looked up)
chain: REEEKPFRDCADVYQAGFNKSGIYTIYINNMPEPKKVFCNMDVNGGGWTVIQHREDGSLDFQRGWKEYKMGFGNPSGEYWLGNEFIFAITSQRQYMLRIELMDWEGNRAYSQYDRFHIGNEKQNYRLYLKGHTGTAGKQSSLILHGADFSTKDADNDNCMCKCALMLTGGWWFDACGPSNLNGMFYTAGQNHGKLNGIKWHYFKGPSYSLRSTTMMIRPLDF
notes: Used at 1 ug/ml in the screen; also called fibrinogen-like domain (FD) of Ang1 fused to a human Fc tag
Regarding B1, in series [1], the Kd was ~88 nM.

B2: native human Ang2 (ligand, UniProt O15123-3 19-495, looked up)
chain: YNNFRKSMDSIGKKQYQVQHGSCSYTFLLPEMDNCRSSSSPYVSNAVQRDAPLEYDDSVQRLQVLENIMENNTQWLMKLENYIQDNMKKEMVEIQQNAVQNQTAVMIEIGTNLLNQTAEQTRKLTDVEAQVLNQTTRLELQLLEHSLSTNKLEKQILDQTSEINKLQDKNSFLEKKVLAMEDKHIIQLQSIKEEKDQLQVLVSKQNSIIEELEKKIVTATVNNSVLQKQQHDLMETVNNLLTMMSTSNSKDPTVAKEEQISFRDCAEVFKSGHTTNGIYTLTFPNSTEEIKAYCDMEAGGGGWTIIQRREDGSVDFQRTWKEYKVGFGNPSGEYWLGNEFVSQLTNQQRYVLKIHLKDWEGNEAYSLYEHFYLSSEELNYRIHLKGLTGTAGKISSISQPGNDFSTKDGDNDKCICKCSQMLTGGWWFDACGPSNLNGMYYPQRQNTNKFNGIKWYYWKGSGYSLKATTMMIRPADF
notes: Angiopoietin-2, human, 'native' as against the chimeric FD forms; also called Angiopoietin-2; source: bought: R&D Systems
Consider B2, for which the “percent inhibition of thrombin/TM complex formation at 1 uM Ang2” value in series [2] was ~80%.

B3: Ang2-FD-Fc (Fc fusion, human, UniProt O15123-3 19-495, looked up)
chain: KEEQISFRDCAEVFKSGHTTNGIYTLTFPNSTEEIKAYCDMEAGGGGWTIIQRREDGSVDFQRTWKEYKVGFGNPSGEYWLGNEFVSQLTNQQRYVLKIHLKDWEGNEAYSLYEHFYLSSEELNYRIHLKGLTGTAGKISSISQPGNDFSTKDGDNDKCICKCSQMLTGGWWFDACGPSNLNGMYYPQRQNTNKFNGIKWYYWKGSGYSLKATTMMIRPADF
notes: Angiopoietin-2 (Ang2, ANGPT2), fibrinogen-like domain (FD); Detected with anti-human Fc
In the case of B3, the Kd in series [1] is ~8.3 nM.

B4: native human Ang1 (ligand, UniProt Q15389 16-498, looked up)
chain: HIGCSNQRRSPENSGRRYNRIQHGQCAYTFILPEHDGNCRESTTDQYNTNALQRDAPHVEPDFSSQKLQHLEHVMENYTQWLQKLENYIVENMKSEMAQIQQNAVQNHTATMLEIGTSLLSQTAEQTRKLTDVETQVLNQTSRLEIQLLENSLSTYKLEKQLLQQTNEILKIHEKNSLLEHKILEMEGKHKEELDTLKEEKENLQGLVTRQTYIIQELEKQLNRATTNNSVLQKQQLELMDTVHNLVNLCTKEGVLLKGGKREEEKPFRDCADVYQAGFNKSGIYTIYINNMPEPKKVFCNMDVNGGGWTVIQHREDGSLDFQRGWKEYKMGFGNPSGEYWLGNEFIFAITSQRQYMLRIELMDWEGNRAYSQYDRFHIGNEKQNYRLYLKGHTGTAGKQSSLILHGADFSTKDADNDNCMCKCALMLTGGWWFDACGPSNLNGMFYTAGQNHGKLNGIKWHYFKGPSYSLRSTTMMIRPLDF
notes: Angiopoietin-1, human, 'native' as against the chimeric FD forms; also called Angiopoietin-1; source: bought: R&D Systems
As to B4, in series [2], the binding result is given as “binds”.
